For one molecule, Kd results are on record in PMC3475183 (Cell, 2011).

For the assay, the target named is 3BP2 Tankyrase targeting peptide. In words: fluorescence polarisation. In general terms: Polarisation of emitted light reports the rotation of a fluorescent probe.

B1: recombinant N-terminal region of TNKS2 containing all five ARCs (domain or fragment)
chain: AVEPAARELFEACRNGDVERVKRLVTPEKVNSRDTAGRKSTPLHFAAGFGRKDVVEYLLQNGANVQARDDGGLIPLHNACSFGHAEVVNLLLRHGADPNARDNWNYTPLHEAAIKGKIDVCIVLLQHGAEPTIRNTDGRTALDLADPSAKAVLTGEYKKDELLESARSGNEEKMMALLTPLNVNCHASDGRKSTPLHLAAGYNRVKIVQLLLQHGADVHAKDKGDLVPLHNACSYGHYEVTELLVKHGACVNAMDLWQFTPLHEAASKNRVEVCSLLLSYGADPTLLNCHNKSAIDLAPTPQLKERLAYEFKGHSLLQAAREADVTRIKKHLSLEMVNFKHPQTHETALHCAAASPYPKRKQICELLLRKGANINEKTKEFLTPLHVASEKAHNDVVEVVVKHEAKVNALDNLGQTSLHRAAYCGHLQTCRLLLSYGCDPNIISLQGFTALQMGNENVQQLLQEGISLGNSEADRQLLEAAKAGDVETVKKLCTVQSVNCRDIEGRQSTPLHFAAGYNRVSVVEYLLQHGADVHAKDKGGLVPLHNACSYGHYEVAELLVKHGAVVNVADLWKFTPLHEAAAKGKYEICKLLLQHGADPTKKNRDGNTPLDLVKDGDTDIQDLLRGDAALLDAAKKGCLARVKKLSSPDNVNCRDTQGRHSTPLHLAAGYNNLEVAEYLLQHGADVNAQDKGGLIPLHNAASYGHVDVAALLIKYNACVNATDKWAFTPLHEAAQKGRTQLCALLLAHGADPTLKNQEGQTPLDLVSADDVSALLTAAMPP
As a reminder, the Kd is the constant that tells how readily two partners part at equilibrium. Higher therefore signals lower affinity. With B1, the dissociation constant (Kd) is 500 ± 100 nM.
